The text below walks through data of the Human Domainome abundance scans (Beltran et al. 2025).

B1: KAT8 regulatory NSL complex subunit 2, residues 28 to 91; numbered along this chain, Q9H9L4 (parent)
chain: CAFTHRPCSHPRLEGQEFCIKHILEDKNAPFKQCSYISTKNGKRCPNAAPKPEKKDGVSFCAEH

± gives the uncertainty stated by the source.

This data set covers variants of B1. Put plainly: abundance fitness (aPCA) (normalised: wild type 0, dead -1); higher = more abundant; growth selection in yeast, the domain comes from the species named. The following applies: Homo sapiens.
CAFTHRPCSHPRLEGQEFCIKHILEDKNAPFKQCSYISTGNGKRCPNAAPKPEKKDGVSFCAEH [K40G]: the abundance fitness is -0.196 ± 0.29. As for CAFTHRPCSHPRLEGQEFCIKDILEDKNAPFKQCSYISTKNGKRCPNAAPKPEKKDGVSFCAEH [H22D], the abundance fitness is -0.904 ± 0.098.

Turning to CAFTHRPCSHPRLEGQEFCIKQILEDKNAPFKQCSYISTKNGKRCPNAAPKPEKKDGVSFCAEH [H22Q], the abundance fitness was -0.506 ± 0.12. Consider CAFTHRPCSHPRLEGQEFCIKHILEDHNAPFKQCSYISTKNGKRCPNAAPKPEKKDGVSFCAEH [K27H], for which the abundance fitness was -0.094 ± 0.11. With CAFTHRPCSHPRLEGQEFCIKHILEDWNAPFKQCSYISTKNGKRCPNAAPKPEKKDGVSFCAEH [K27W], the abundance fitness is -0.215 ± 0.085. On to CAFTHRPCSHPRLEGQEFCIKHILEDKNAPFKQCSYINTKNGKRCPNAAPKPEKKDGVSFCAEH [S38N], for which the abundance fitness is -0.122 ± 0.062. For CAFTHRPCSHPRLEGQEFCIKHILEDKNAPFKQCDYISTKNGKRCPNAAPKPEKKDGVSFCAEH [S35D], the abundance fitness was -0.057 ± 0.12. CAFTHRPCSHPRLEGQEFCIKHILEDKNAPFKQCQYISTKNGKRCPNAAPKPEKKDGVSFCAEH [S35Q]: the abundance fitness is -0.103 ± 0.098. As to CAFTHRPCSHPRLEGQEFCIKHILEDKNAPFKQCVYISTKNGKRCPNAAPKPEKKDGVSFCAEH [S35V], the abundance fitness was -0.031 ± 0.053. In the case of CAFTHRPCSHPRLEGQEFCIKHILEDKNAPFKQCSYISTKNGKRCPNAAPKPEKKEGVSFCAEH [D56E], the abundance fitness is -0.113 ± 0.21. Regarding CAFTHRPCSHPRLEGQEFCIKHILEDKNAPFKQCSYISTKNGKRCPNAAPKWEKKDGVSFCAEH [P52W], the abundance fitness was -0.053 ± 0.063. Turning to CAFTHRPCSHPRLEGQEFCIKHILEDKNAPFKQCSYISTKNGKRCPNAAPKIEKKDGVSFCAEH [P52I], the abundance fitness is -0.136 ± 0.14. Regarding CAFTHRPCSHPRLEGQEFCIKHILEDKNAEFKQCSYISTKNGKRCPNAAPKPEKKDGVSFCAEH [P30E], the abundance fitness is -0.251 ± 0.093. Regarding CAFTHRPCSHPRLEGQEFCIMHILEDKNAPFKQCSYISTKNGKRCPNAAPKPEKKDGVSFCAEH [K21M], the abundance fitness is -0.159 ± 0.068. As for CAFTHRPCSHPRLEGQEFCIRHILEDKNAPFKQCSYISTKNGKRCPNAAPKPEKKDGVSFCAEH [K21R], the abundance fitness was -0.058 ± 0.054.

As for CAFTHRPCSHPRLEGQEFCIKHILEDKNAPFKQCSYISAKNGKRCPNAAPKPEKKDGVSFCAEH [T39A], the abundance fitness is -0.13 ± 0.07. In the case of CAFTHRPCSHPRLEGQEFCIKHILEDKNAPFKQCSYISCKNGKRCPNAAPKPEKKDGVSFCAEH [T39C], the abundance fitness was -0.205 ± 0.073. CAFTHRPCSHPRLEGQEFCIKHILEDKNAPFKQCSYISMKNGKRCPNAAPKPEKKDGVSFCAEH [T39M]: the abundance fitness is -0.165 ± 0.083. For CAFTHRPCSHPRLEGQEFCIKHILEDKNAPFKQHSYISTKNGKRCPNAAPKPEKKDGVSFCAEH [C34H], the abundance fitness is -0.453 ± 0.092. Regarding CAFTHRPCSHPRLEGQEFCIKHILEDKNAPFKQCSYISTKNGKRCPNAAPKPEKKDGVSFSAEH [C61S], the abundance fitness was -0.432 ± 0.046. As to CAFTHRPCSHPRLEGQEFCIKHILEDKNAPFKQCSYISTKNGKRCPNAAPKPEKKDGVSFKAEH [C61K], the abundance fitness was -0.436 ± 0.064. With CAFTHRPCSHPRLEGQEFCIKHILEDKNAPFKPCSYISTKNGKRCPNAAPKPEKKDGVSFCAEH [Q33P], the abundance fitness is -0.036 ± 0.063. Regarding CAFTHRPCSHPRLEGQEFCIKHILEDKNAPFKQCSGISTKNGKRCPNAAPKPEKKDGVSFCAEH [Y36G], the abundance fitness was -0.085 ± 0.049. Take CAFTHRPCSHPRLEGQEFCIKHILEDKNAPFKQCSEISTKNGKRCPNAAPKPEKKDGVSFCAEH [Y36E]: the abundance fitness was -0.183 ± 0.093.

In the case of CAFTHRPCSHPRLEGQEFCIKHILEDKNAPFKQCSYISTKNGKRCPNAAPKPEKKDSVSFCAEH [G57S], the abundance fitness was -0.372 ± 0.28. For CAFTHRPCSHPRLEGQEFCIKHILEDKNAPFKQCSYISTKNGKRCPNVAPKPEKKDGVSFCAEH [A48V], the abundance fitness was -0.178 ± 0.056. On to CAFTHRPCSHPRLEGQEHCIKHILEDKNAPFKQCSYISTKNGKRCPNAAPKPEKKDGVSFCAEH [F18H], for which the abundance fitness was -0.454 ± 0.13.

As to CAFTHRPCSHPRLEGQEFCIKHILEDKNAPFKQCSYISTKNGKRCPNAYPKPEKKDGVSFCAEH [A49Y], the abundance fitness is -0.261 ± 0.12. For the variant CAFTHRPCSHPRLEGQEFCIKHILEDKNAPFKQCSYISTKNGKRCPNATPKPEKKDGVSFCAEH [A49T], the abundance fitness was -0.005 ± 0.087.

For the variant CAFTHRPCSHPRLEGQEFCIKHILEDKNAPFKQCSYISTKNGKRCPNARPKPEKKDGVSFCAEH [A49R], the abundance fitness is -0.332 ± 0.053. For CAFTHRPCSHPRLEGQEFCIKHILEDKNAPFKQCSYISTKNGKRCPNADPKPEKKDGVSFCAEH [A49D], the abundance fitness is -0.339 ± 0.13.

With CAFTHRPCSHPRLEGQEFCIKHILEDKNAPFKQCSYISTKNGKRCPNAGPKPEKKDGVSFCAEH [A49G], the abundance fitness is -0.06 ± 0.057.

Regarding CAFTHRPCSHPRLEGQEFCIKHILEDKNAPFKQCSYISTKNGKRCPNAKPKPEKKDGVSFCAEH [A49K], the abundance fitness is -0.321 ± 0.077.

As for CAFTHRPCSHPRLEGQEFCIKHILEDKNAPFKQCSYISTKNGKRCPNAAPKPEKKDGVSFCTEH [A62T], the abundance fitness is -0.065 ± 0.059. Turning to CAFTHRPCSHPRLEGQEFCIKHILEDKNAPFKQCSYISTKNGKRCPNAAPKPEKKDGVSFCFEH [A62F], the abundance fitness was -0.111 ± 0.066. In the case of CAFTHRPCSHPRLEGQEFCIKHILEDKNAPFKQCSYISTKNGKRCPNAAPKPEKKDGVSFCREH [A62R], the abundance fitness is -0.028 ± 0.035.

Regarding CAFTHRPCSHPRLEGQEFCIKHILEDKNAPFKQCSYISTKNGKRCPNAAPKPEKKDGMSFCAEH [V58M], the abundance fitness was -0.018 ± 0.11. Consider CAFTHRPCSHPRLEGQEFCIKHICEDKNAPFKQCSYISTKNGKRCPNAAPKPEKKDGVSFCAEH [L24C], for which the abundance fitness was -0.129 ± 0.091.

CAFTHRPCSHPRLEGQEFCIKHILEDKNAPFKQCSYISTKNGKRCPNAAPKPEKKDGVSFCAET [H64T]: the abundance fitness is -0.33 ± 0.14. On to CAFTHRPCSHPRLEGQEFCIKHILEDKNAPFKQCSYISTKNGKRCPNAAPKPEKKDGVSFCAES [H64S], for which the abundance fitness is -0.315 ± 0.15. Next, CAFTHRPCSHPRLEGQEFCIKHILEDKNAPFKQCSYISTKNGKRCPNAAPKPEKKDGVSFCAEE [H64E]: -0.877 ± 0.32; CAFTHRPCSHPRLEGQEFCIKHILEDKNAPFKQCSYISTKTGKRCPNAAPKPEKKDGVSFCAEH [N41T]: -0.195 ± 0.075.
